# Experimental data reported in the nanobody polyreactivity screen of Harvey et al. (2022).
# Test: yeast display, Sf9 membrane polyspecificity reagent, FACS + sequencing; frameworks hold sequencing errors
# How it was run: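 A synthetic nanobody library was expressed on Saccharomyces cerevisiae BJ5465 by galactose induction for 36–48 hours. The library was stained for 1 hour at 4 °C with 10% biotinylated, detergent-solubilized Sf9 membrane reagent and enriched with streptavidin microbeads before FACS. Low and high (top ~1%) gates were set on anti-HA fluorescence for expression and streptavidin fluorescence for reagent binding, and each polyreactivity label reflects the gate of origin.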
row,Sequence,polyreactivity (PSR sort gate)
1,QVQLVESGGGLVQAGGSLRLSCAASGSIFYIYAMGWYRQAPGKERELVAGINGGGASTYYADSVKGRFTISRDNAKNTVYLQMNSLKPEDTAVYYCAADIRYLGEYWGQGTQVTVSS,low polyreactivity
2,QVQLVESGGGLVQAGGSLRLSCAASGSIFYKNAMGWYRQAPGKERELVAAISSSGGSTRYADSVKGRFTISRDNSKNTVSLQMNSLKPEDTAVYYCAASGSRTSRGYWGQGTQVTVSS,high polyreactivity
3,QVQLVESGGGLVQAGGSLRLSCAASGSIFYKYAMGWYRQAPGKERELVATIRASGGRTYYADSVKGRFTISRDNAKNTVYLQMNSLKPEDTAVYYCAKYTTRGVYRSWPKDMDYWGQGTQVTVSS,low polyreactivity
4,QVQLVESGGGLVQAGGSLRLSCAASGSIFYLYAMGWYRQAPGKERDVVAAITWRGGITNYADSVKGRFTISRYNAKNTVYLQMNSLKPEVTAVYYCAADPYRFLATELYYWGQGTQVTVSS,low polyreactivity
5,QVQLVESGGGLVQAGGSLRLSCAASGSIFYLYAMGWYRQAPGKERELVATMSSSGGSTYYADSVKGRFTISRDNAKNTVYLQMISLKPEDTAVYYCNADYIYYGTTYEYWGQGTQVTVSS,low polyreactivity
6,QVQLVESGGGLVQAGGSLRLSCAASGSIFYLYAMGWYRQEPGKERELVAAINFRGGSTYADSVKGRFTISRDNAKNTVYLQMNSLKPEDTAVYYCAAKAAYRMNYWGQGTQVTVSS,high polyreactivity
7,QVQLVESGGGLVQAGGSLRLSCAASGSIFYLYDKGWYRQAPGKERELVADITWSGGSTYYADSVKGRFTISRDNAKNTVYLQMYSLKPEDTAVYYCAAAYGPFYYELYDYWGLGTQVTVSS,low polyreactivity
8,QVQLVESGGGLVQAGGSLRLSCAASGSIFYLYTMGWNRQAPGKERELVAAITAISGSTYYADSVKGRFTISRDNAKNTVYLQINSLKPEDTAVYYCAAKYYRHRWQLYNYWGQGTQVTVSS,high polyreactivity
9,QVQLVESGGGLVQAGGSLRLSCAASGSIFYPNAMGWYRQAPGKERELVAANSIGGGRTYYADSVKGRFTISRDNAKNTVYLQMNSLKPEDTAVYYCAASFYSYTSTWAYRFYYWGQGTQVTVSS,high polyreactivity
10,QVQLVESGGGLVQAGGSLRLSCAASGSIFYPNVMGWYRQAPGKERELVAAIRTSGGSTYYADSVKGRFTISRDNAKNTVYLQMNSLKPEDTAVYYCAADYIYVKYEYWGQGTQVTVSS,high polyreactivity
11,QVQLVESGGGLVQAGGSLRLSCAASGSIFYPYAMGRYRQAPGKERELVASIRSRRGTTFYADSVKGRFTISRDNAKNTVYLQMNSLKPEDTAVYYCAVDNWSSSYYWWVDKLGGSDYWGQGTQVTVSS,low polyreactivity
12,QVQLVESGGGLVQAGGSLRLSCAASGSIFYPYAMGWSSKAPRKERELVARISSAGGTYYADSVKGRFTISRDNAKNTVYLQMNSLKPEDTAVYYCAAQARYRYYYWGQGTQVTVSS,high polyreactivity
13,QVQLVESGGGLVQAGGSLRLSCAASGSIFYPYAMGWYRQAPGKERELVAAISSGGTTYYADSVKGRFTISRDNAKNTVYLQMNSLKPEDTAVYYCGAGFYLRAVWMDYWGQGTQVTVSS,high polyreactivity
14,QVQLVESGGGLVQAGGSLRLSCAASGSIFYPYAMGWYRQAPGKERELVAAISSSGGSTYYADSVKGRFTISRDTAKNTVYLQMNSLKPEDTAVYYCAARGKKHAYDYWGQGTQVTVSS,low polyreactivity
15,QVQLVESGGGLVQAGGSLRLSCAASGSIFYPYAMGWYRQAPGKERELVASISSGGSTYYADSVKGRFTISRDNGKNTVYLQMISLKTDDTAVYYCIAVFSTFTGEYYWGKGTQVTVSS,high polyreactivity
16,QVQLVESGGGLVQAGGSLRLSCAASGSIFYPYAMGWYSQAPGKERELVAGISRSGASTYYADSVKGRFTISRDNAKNTVYLQMNSLKPEDTAVYYCAADDWTRNYWGQGTQVTVSS,low polyreactivity
17,QVQLVESGGGLVQAGGSLRLSCAASGSIFYPYVMGWYRQAPGKERELVATITWSGDDTNYADSVKGRFTISRDNAKNTVYLQMNSLKPEDTAVYYCAVGYGDYLYYDYDYWGQGTQVTVSS,low polyreactivity
18,QVQLVESGGGLVQAGGSLRLSCAASGSIFYQNAMGWYIQAPGKERELVAAITSDGSTYYADSVKGRFTISRDNAKNTVYLQMNSLKPEDTAVYYCAAEYYGHRYDYWGQGTQVTVSS,low polyreactivity
19,QVQLVESGGGLVQAGGSLRLSCAASGSIFYQNAMGWYRQAPGKEREFVAAITWIGGSTYYADSVKGRFTISRDNAKNSVYLQMNILKPEDTAVYYCAADSVDNIYYGFDYWGQGTQVTVSS,high polyreactivity
20,QVQLVESGGGLVQAGGSLRLSCAASGSIFYQNAMGWYRQAPGKERELVAAISSAGSTYYADSVKGRFTISRDNAKNTVYLQMNSLKPEDTAVYYCARRSSGELGYHIYDYWGQGTQVTVSS,low polyreactivity
21,QVQLVESGGGLVQAGGSLRLSCAASGSIFYQNAMGWYRQAPGKERELVAAITWRSGSTYYADSVKGRFTISRDNAKNTVDLQMNSLKPEDTAVYYCAADLLISPEFYYWGQGTQVTVSS,high polyreactivity
22,QVQLVESGGGLVQAGGSLRLSCAASGSIFYQNMGWYRQAPRKERELVATINRGSSTHYADSVKGRFTISRDNAKNTVYLQMNSLKPEDTAVYYCAKRSSRYRLYYWGQGTQVTVSS,high polyreactivity

row,Sequence,polyreactivity (PSR sort gate)
1,QVQLVESGGGLVQAGGSLRLSCAASGSIFYQYAMGWYRQAPGKERELVARIRGSTGTTYYADSVKGRFTISRDNAKNTVYLQMNSLKPEDTAVYYCNAARYQGRSRFDYWGQGTQVTVSS,high polyreactivity
2,QVQLVESGGGLVQAGGSLRLSCAASGSIFYRNAMGWSRQAPGKEREFVAAITLRGGSTYYADSVKGRFTISRDYAKNTVYLQMNSLKPEDTAVYYCNAGVGLTYVHDGDYWGQGTQVTVSS,low polyreactivity
3,QVQLVESGGGLVQAGGSLRLSCAASGSIFYRNAMGWYRQAPGKEREFVAAITLRGGSTYYADSVKGRFTISRDKAKNTVYLQMNSLKPEDTAVYYCNAGVGLTYVHDGDYWGQGTQVTVSS,low polyreactivity
4,QVQLVESGGGLVQAGGSLRLSCAASGSIFYRNAMGWYRQAPGKERELVAAISSDGSTNYADSVKGRFTISRDNAKNTVYLQMNSLKPEDTAVSYCAAPWTQILDYWGQGTQVTVSS,low polyreactivity
5,QVQLVESGGGLVQAGGSLRLSCAASGSIFYRNAMGWYRQAPGKERELVAAITWSGVNTYYADSVKGRFTISRDNAKNTVYLQMNSLKPEDTAVYYCAVPSRYWLNRGFDYWGQGSQVTVSS,low polyreactivity
6,QVQLVESGGGLVQAGGSLRLSCAASGSIFYRNTMGWYRQAPGKERELVAAITRGTRTYYADSGKGRFTISRDNAKNTVYLQMNSLKPEDTAVYYCNARFVGRTGGSFDYWGQGTQVTVSS,high polyreactivity
7,QVQLVESGGGLVQAGGSLRLSCAASGSIFYRNTMGWYRQAPGKERELVAAITTSGGSTYYADSVKGRFTISRDNAKNTVYLQMNSLKPEDTAVYYCAARTWERWYRYYYWGQGTQVTVSS,high polyreactivity
8,QVQLVESGGGLVQAGGSLRLSCAASGSIFYRNTMGWYRQAPGKERELVASINTGTGTYYADSVKGRFTISRDNAKNTVYLQMNSLKPEDTAVYYCNKVSYVKYGYWGQGTQVTVSS,high polyreactivity
9,QVQLVESGGGLVQAGGSLRLSCAASGSIFYRNVMGWYRQAPGKERELVAAISSGTSTYYADSVKGRFTISRDNAKHTVYFPMNSLKPEDPAVYDCAADGLHYYGQRWYYGVDYWVQGTQVTVSS,low polyreactivity
10,QVQLVESGGGLVQAGGSLRLSCAASGSIFYRNVMGWYRQAPGKERELVAAITWSGGSTYYADSVKGRFTISRDNAKNTVYLQMNSLKPEDTAVYYCAAASKGTYRGKVSGYYYWGQGTQVTVSS,high polyreactivity
11,QVQLVESGGGLVQAGGSLRLSCAASGSIFYRYAMGWYRPAPGKERELVAAISSTGSTYYADSVKGRFTISRDNAKNTVYLQMNSLKPEDTAVYYCAARQGYRSYRRYDYWGQGTQVTVSS,high polyreactivity
12,QVQLVESGGGLVQAGGSLRLSCAASGSIFYRYAMGWYRQAPGKERELVAAISSGGSTYYADSVKGRFTISRDNAKNTVYLQMNSLKPEDTAVYYCAAKHYYYSPYVRYDPPPGYYWGQGTQVTVSS,high polyreactivity
13,QVQLVESGGGLVQAGGSLRLSCAASGSIFYRYAMGWYRQAPGKERELVAAISWGGGRTYYADSVKGRFTISRDNAKNTVYLLMKSLKPEDTAVYYCNAVQSYYTVHRLDYWGQGTQVTVSS,high polyreactivity
14,QVQLVESGGGLVQAGGSLRLSCAASGSIFYRYAMGWYRQAPGKERELVAAISYNGGRTYYADSVKGRFTISRDNAKNTVYLQMNSLKPEDTAVYYCNAAGRDDAYDYWGQGTQVTVSS,high polyreactivity
15,QVQLVESGGGLVQAGGSLRLSCAASGSIFYRYAMGWYRQAPGKERELVATISLSGGSTYADSVKGRFTISRDNAKNTVYLQMNSLKPEDTAVYYCAAGGQYYIIRYDYWGQGTQVTVSS,low polyreactivity
16,QVQLVESGGGLVQAGGSLRLSCAASGSIFYRYDMGWYRQAPGKERELVADISWSSGRTYYADSVKGRFTISRDNAKNTVYLQMNSLKPEDTAVYYCATDDFWNVKFYAYYPEFDYWGQGSQVTVSS,low polyreactivity
17,QVQLVESGGGLVQAGGSLRLSCAASGSIFYRYTMGWYRQAPGKERELVAGITFGAGTYYADSVKGRFTISRDNAKNTVYLQMNSLKPEDTAVYYCNAKHLPRHRDYWGQGTQVTVSS,low polyreactivity
18,QVQLVESGGGLVQAGGSLRLSCAASGSIFYSNAMGWYRQAPGKERELVAAISGSGGTTYYADSVKGRFTISRDNAKNTVYLQMNSLKPEETAVYYCAAKPSVRVRLSDYWGQGTQVTVSS,high polyreactivity
19,QVQLVESGGGLVQAGGSLRLSCAASGSIFYSNTMGWYRQAPGKERELVAAISRGGSTYYADSVKGRFTISRENAKNTVYLQMNSLKPEDTAVYYCAARYRWAPAYDYWGQGTQVTVSS,high polyreactivity
20,QVQLVESGGGLVQAGGSLRLSCAASGSIFYSNVMGWYRQAPGKERELVAAIRYSGVGTYYADSVKGRFTISRDNAKNTVYLQMNSLKPEDTAVYYCNAVTKVGYLRRRDYWGQGTQVTVSS,low polyreactivity
21,QVQLVESGGGLVQAGGSLRLSCAASGSIFYSYAMGWYRQAPGTERELVAAISWDASTYYADSVKGRFTISRDNAKNTVYLQMNSLKPEDTAVYYCNADIPYYFVYDAYDYWGQGTQVTVSS,low polyreactivity
